In US20180171001A1:

Columns and labels:
[1] = biological target: Env of HIV-1 strain YU2.DG (HIV-1)
[2] = biological target: SC4226618 (Human immunodeficiency virus 1)
[3] = biological target: Tro11 (Human immunodeficiency virus 1)

chimeric IgG: 8ANC195 HC paired with the LC from 3BNC117 (antibody)
IC50 (fold change over 8ANC195 IgG), pseudovirus neutralization [panel B] [1]: 12 fold
IC50 (fold change over 8ANC195 IgG), pseudovirus neutralization [panel B] [2]: 32 fold
IC50 (fold change over 8ANC195 IgG), pseudovirus neutralization [panel B] [3]: 17 fold
